Assay [1] addresses T1, Kv1.2 (Rattus norvegicus, UniProt P63142).
T1 construct: expressed in transfected cells; host or cells: Xenopus laevis oocytes (cRNA injection)
Nature of the assay: Two electrode voltage clamp, Xenopus oocytes, Kv1.2. The assay is classed as cell-based. How it is done:
(§1) To examine the effect of mokatoxin-1 on activity of potassium ion channels, cDNA encoding Rattus Kv1.1 (NCBI accession number NM_173095), Rattus Kv1.2 (NM_012970), Homo Kv1.3 (NM_002232), or Mus BK (NM_010610) were subcloned into oocyte expression vectors based on PCR3.1 and pGEM. cRNA synthesis was performed with T7 polymerase and the mMessageMachine Kit (Ambion, Austin, Tex.) according to manufacturers instructions. cRNA concentrations were determined spectroscopically. For two electrode voltage clamp recordings oocytes were extracted from Xenopus laevis and defoliculated with Collagenase Type 2 (Worthington, Lakewood, N.J.). Oocytes were maintained in ND91 solution containing 2 mM KCl, 91 mM NaCl, 1 mM MgCl2, 1.8 mM CaCl2, and 5 mM HEPES, pH 7.5, supplemented with 1% Penicillin/Streptomycin (Cellgro, Hemdon, Va.) and 0.1% Gentamycin sulfate (Gibco, Grand Island, N.Y.)) at 16° C. Stage V and VI oocytes were injected with 8 pg to 4 ng cRNA, and currents recorded 1 to 4 days later.
(§2) For dose-response measurements of toxin block of Kv1.1, Kv1,2, or Kv1.3 peak currents were recorded during a 500 ms step to 0 mV from a holding voltage of −100 mV, followed by a 200 ms step to −135 mV every 30 s. To determine the kinetics of toxin block oocytes were held at −100 mV and stepped to the test voltage of 0 mV for 100 ms followed by a 200 ms duration step to −135 mV every 2 s. BK currents were recorded during a 50 ms step to +60 mV from a holding voltage of −80 mV, followed by a 40 ms step to −100 mV every 3 s. The perfusion solution contained 2 mM KCl, 96 mM NaCl, 1 mM MgCl2, 1.8 mM CaCl2, 5 mM HEPES, pH 7.5 and 0.1% fatty acid ultra-free BSA fraction V (Roche Diagnostics Corporation, Indianapolis, Ind.). Data acquisition and processing was performed with an oocyte clamp OC-725B (Warner Instruments Corporation, Hamden, Conn.), pCLAMP (Axon, Sunnyvale, Calif.), IGOR Pro (WaveMetrics, Lake Oswego, Oreg.), and Origin6.1 (OriginLab Corporation, Northampton, Mass.) softwares. The equilibrium dissociation rates (KD) for block of Kv1.1, Kv1.2, and Kv1.3 by mokatoxin-1 were determined by fitting the dose-response data and kon and koff were calculated as described by Goldstein and Miller, 1993 (Biophys J. 1993 65 (4):1613-1619).

For assay [2], the system named is guinea pig ileum. To be noted: J Pharmacol Exp Ther. 1999; cited from earlier work.
The target in assay [3] is T2, BK (Mus musculus, UniProt Q08460).
T2 construct: expressed in transfected cells; host or cells: Xenopus laevis oocytes (cRNA injection)
T2 sequence (Q08460 whole entry): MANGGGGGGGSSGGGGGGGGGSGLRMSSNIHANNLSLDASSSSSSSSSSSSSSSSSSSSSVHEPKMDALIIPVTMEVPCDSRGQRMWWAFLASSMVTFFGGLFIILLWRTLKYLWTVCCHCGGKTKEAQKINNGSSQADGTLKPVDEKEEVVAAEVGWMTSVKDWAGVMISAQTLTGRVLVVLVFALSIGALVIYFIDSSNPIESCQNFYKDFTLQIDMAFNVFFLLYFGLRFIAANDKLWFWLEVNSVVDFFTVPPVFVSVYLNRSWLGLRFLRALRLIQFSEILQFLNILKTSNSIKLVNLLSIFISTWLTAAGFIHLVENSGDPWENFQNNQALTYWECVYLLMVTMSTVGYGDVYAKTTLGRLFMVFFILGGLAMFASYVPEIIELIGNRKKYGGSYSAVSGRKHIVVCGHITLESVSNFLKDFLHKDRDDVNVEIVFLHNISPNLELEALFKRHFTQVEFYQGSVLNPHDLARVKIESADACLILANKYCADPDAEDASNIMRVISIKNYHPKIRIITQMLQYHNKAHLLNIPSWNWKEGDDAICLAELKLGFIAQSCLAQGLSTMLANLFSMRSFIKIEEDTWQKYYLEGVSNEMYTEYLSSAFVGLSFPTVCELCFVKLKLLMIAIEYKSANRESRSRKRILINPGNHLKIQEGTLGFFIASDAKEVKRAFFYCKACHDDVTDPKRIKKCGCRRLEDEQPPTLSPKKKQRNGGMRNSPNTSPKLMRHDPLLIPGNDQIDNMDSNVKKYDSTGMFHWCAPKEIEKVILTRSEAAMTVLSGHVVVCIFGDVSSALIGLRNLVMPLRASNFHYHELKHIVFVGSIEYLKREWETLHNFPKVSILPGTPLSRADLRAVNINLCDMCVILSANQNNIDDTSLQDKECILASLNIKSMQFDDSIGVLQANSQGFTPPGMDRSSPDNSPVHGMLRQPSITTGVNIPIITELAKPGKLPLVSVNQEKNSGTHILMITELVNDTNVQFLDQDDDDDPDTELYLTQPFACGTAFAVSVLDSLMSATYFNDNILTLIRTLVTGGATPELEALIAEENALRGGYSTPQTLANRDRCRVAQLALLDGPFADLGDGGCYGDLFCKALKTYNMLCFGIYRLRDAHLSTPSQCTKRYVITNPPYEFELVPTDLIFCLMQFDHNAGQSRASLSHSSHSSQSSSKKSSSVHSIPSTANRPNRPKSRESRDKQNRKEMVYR
Nature of the assay: Two electrode voltage clamp, Xenopus oocytes, BK. The assay is classed as cell-based. How it is done:
as §1, §2

Assay [4] addresses T3, Kv1.1 (Rattus norvegicus, UniProt P10499).
T3 construct: expressed in transfected cells; host or cells: Xenopus laevis oocytes (cRNA injection)
The experiment in a line: Two electrode voltage clamp, Xenopus oocytes, Kv1.1. The assay is classed as cell-based. How it is done: as §1, §2

In assay [5] the target is Kv1.3 (Homo sapiens, UniProt P22001). Nature of the assay: Two electrode voltage clamp, Xenopus oocytes, Kv1.3. The assay is classed as cell-based. Also noted: expressed in transfected cells; host or cells: Xenopus laevis oocytes (cRNA injection).
Kv1.3, sequence (P22001 whole entry): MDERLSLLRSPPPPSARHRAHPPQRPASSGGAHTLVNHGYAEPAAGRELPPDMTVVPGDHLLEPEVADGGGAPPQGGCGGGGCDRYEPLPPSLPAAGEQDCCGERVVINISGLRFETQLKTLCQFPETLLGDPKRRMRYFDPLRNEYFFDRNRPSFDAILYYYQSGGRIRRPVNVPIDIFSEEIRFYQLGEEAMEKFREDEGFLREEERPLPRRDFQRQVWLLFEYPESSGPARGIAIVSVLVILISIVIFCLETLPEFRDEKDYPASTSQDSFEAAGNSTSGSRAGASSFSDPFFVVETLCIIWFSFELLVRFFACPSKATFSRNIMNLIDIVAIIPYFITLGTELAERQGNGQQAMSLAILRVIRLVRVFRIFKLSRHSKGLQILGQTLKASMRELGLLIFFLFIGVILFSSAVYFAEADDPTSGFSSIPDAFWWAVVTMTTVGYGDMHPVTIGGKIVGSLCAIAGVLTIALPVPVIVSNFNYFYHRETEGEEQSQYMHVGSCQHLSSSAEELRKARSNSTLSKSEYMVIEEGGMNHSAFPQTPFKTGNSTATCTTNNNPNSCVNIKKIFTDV
Description: Thereafter, MK-1 was synthesized. […] The blocking of […] by MK-1 is represented by filled circles; the blocking of Kv1.2 by MK-1 is represented by filled diamonds; and the blocking of Kv1.1 by MK-1 is represented by filled triangles.
as §1, §2
(Two-electrode voltage clamp is typically applied to oocytes expressing channels or transporters.)

Assay [6] addresses KcsA carrying a segment of the Kv1.3 pore loop (KcsA-1.3).
Assay [7] has as its target Kv1.1 K+ channel, species not stated.
For assay [8], the target named is Kv1.2 K+ channel, species not stated.
Assay [9] has as its target Kv1.3 K+ channel, wild-type, species not stated.
Assay [10] has as its target BK channel, species not stated.
The target in assay [11] is KcsA carrying a segment of the Kv1.3 pore loop (KcsA-1.3). The source holds these as a separate data set.
The target of assay [12] is Kv1.3 K+ channel, wild-type, species not stated. Nature of the assay: one round of panning of KTX and nonspecific phages on cells expressing Kv1.3.
The target is the same in assay [13]. This is another data set of the same source.
Assay [14] has the same target. This is another data set of the same source.
For assay [15] the target is unchanged. This is another data set of the same source.
For assay [16] the target is unchanged. The experiment in a line: phage panning on COS cells.
Assay [17] shares this target. The experiment in a line: phage panning on HEK cells.
For assay [18] the target is unchanged. The source holds these as a separate data set.
The target of assay [19] is KcsA carrying a segment of the Kv1.3 pore loop (KcsA-1.3). Nature of the assay: panning of a 1:99 mixture of Shk and Camel VHH phages on KcsA-1.3, n = 17-20.
The target of assay [20] is human Kv1.3 (Homo) (UniProt P22001).
Assay [21] addresses Mus BK (mouse big conductance calcium-activated K channel) (Mus) (UniProt Q08460).
Assay [22] has as its target Rattus Kv1.1 (Rattus) (UniProt P10499).
Assay [23] concerns the target Rattus Kv1.2 (Rattus) (UniProt P63142).
In assay [24] the target is human Kv1.3 (Homo) (UniProt P22001). The source holds these as a separate data set.
The target in assay [25] is KcsA carrying a segment of the Kv1.3 pore loop (KcsA-1.3). This is another data set of the same source.
For assay [26] the target is unchanged. The experiment in a line: library panning on immobilised KcsA-1.3.
Assay [27] concerns the target Rattus Kv1.1 (Rattus, UniProt P10499). Nature of the assay: cell-based or functional assay.
In assay [28] the target is Mus BK (mouse big conductance calcium-activated K channel) (Mus, UniProt Q08460). Nature of the assay: cell-based or functional assay.
Assay [29] concerns the target Rattus Kv1.2 (Rattus, UniProt P63142). Nature of the assay: cell-based or functional assay.
Assay [30] deals with human Kv1.3 (Homo, UniProt P22001). The experiment in a line: cell-based or functional assay.

Values joined by “and” are separate entries in the source; they are usually repeats but may differ in a detail not shown here. Identical values can stand only once. Where no end group is shown, it is not given here. Where only a bound is given, the exact number is not on record here.

T1 sequence (P63142 whole entry): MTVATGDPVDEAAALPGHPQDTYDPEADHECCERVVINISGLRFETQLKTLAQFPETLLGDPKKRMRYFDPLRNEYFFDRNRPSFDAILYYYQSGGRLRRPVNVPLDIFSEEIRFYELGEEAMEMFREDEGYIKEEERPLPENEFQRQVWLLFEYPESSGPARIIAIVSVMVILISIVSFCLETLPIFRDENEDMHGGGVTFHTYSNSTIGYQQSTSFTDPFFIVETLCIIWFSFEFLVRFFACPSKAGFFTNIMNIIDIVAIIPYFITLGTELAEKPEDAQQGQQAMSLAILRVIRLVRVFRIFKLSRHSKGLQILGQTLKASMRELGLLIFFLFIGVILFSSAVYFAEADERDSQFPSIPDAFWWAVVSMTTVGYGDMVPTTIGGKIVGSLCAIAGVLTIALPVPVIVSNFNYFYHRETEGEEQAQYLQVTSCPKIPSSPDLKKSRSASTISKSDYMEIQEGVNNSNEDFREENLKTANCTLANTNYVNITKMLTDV
T3 sequence (P10499 whole entry): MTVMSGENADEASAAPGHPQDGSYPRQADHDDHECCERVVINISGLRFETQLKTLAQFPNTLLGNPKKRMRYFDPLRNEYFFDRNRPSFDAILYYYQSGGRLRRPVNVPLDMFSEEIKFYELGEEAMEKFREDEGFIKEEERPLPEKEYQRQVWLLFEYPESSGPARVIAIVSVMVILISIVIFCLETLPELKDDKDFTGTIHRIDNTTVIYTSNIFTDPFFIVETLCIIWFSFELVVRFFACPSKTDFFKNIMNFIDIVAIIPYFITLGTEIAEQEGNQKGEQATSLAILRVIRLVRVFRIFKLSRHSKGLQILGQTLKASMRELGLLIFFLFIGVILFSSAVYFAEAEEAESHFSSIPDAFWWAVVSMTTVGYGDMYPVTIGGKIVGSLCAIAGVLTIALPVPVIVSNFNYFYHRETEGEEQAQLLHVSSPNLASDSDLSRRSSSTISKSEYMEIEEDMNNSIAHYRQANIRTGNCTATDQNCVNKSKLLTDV

On to `CC[C@H](C)[C@@H]1NC(=O)[C@@H]2CSSC[C@@H]3NC(=O)[C@H](CCCCN)NC(=O)[C@H](CCCNC(=N)N)NC(=O)[C@H](CC(N)=O)NC(=O)[C@H](CCSC)NC(=O)[C@H](CSSC[C@H](NC(=O)[C@H](CO)NC(=O)[C@@H](NC(=O)[C@H](CC(N)=O)NC(=O)[C@@H](NC(=O)[C@@H]4CCCN4C(=O)[C@@H](NC(=O)CN)C(C)C)[C@@H](C)CC)C(C)C)C(=O)N[C@@H]([C@@H](C)O)C(=O)NCC(=O)N[C@@H](CO)C(=O)N4CCC[C@H]4C(=O)N[C@@H](CCC(N)=O)C(=O)N2)NC(=O)[C@H](CCCCN)NC(=O)CNC(=O)[C@H](Cc2ccccc2)NC(=O)[C@H](CCCNC(=N)N)NC(=O)[C@H](CCSC)NC(=O)CNC(=O)[C@H](C)NC(=O)[C@H](CC(=O)O)NC(=O)[C@H](CCCCN)NC(=O)[C@H](CSSC[C@@H](C(=O)N[C@H](C(=O)N2CCC[C@H]2C(=O)N[C@@H](CCCCN)C(=O)O)[C@@H](C)O)NC(=O)[C@H](Cc2c[nH]cn2)NC3=O)NC(=O)[C@@H]2CCCN2C(=O)[C@H](CCCCN)NC1=O` [AgTX2, agitoxin-2], for which the IC50 (as a rule, the concentration that inhibits the measured activity by half) in assay [1] is 26.8 nM; in assay [3] it was about 1150 nM; in [4], 0.04 nM; in assay [5], 0.004 nM. Further, in [2], the ileum contractions result is recorded as “contractions”.

In the case of “Dendroaspis natriuretic peptide (DNP) phage (from UniProt P28374)”, the Output (% Ligands) in [6] was 0%.

For Kaliotoxin-1 (KTX) (peptide), the approximate IC50 in assay [7] was determined as 0.1 nM; in assay [8] it was 1.4 nM; in assay [9] it was 0.5 nM; in assay [10] it was 5 nM.

For Kaliotoxin-1 phage (KTX-phage), the Fold Enrichment is 3.6 fold in assay [11]; 4.3 fold and 5.2 fold in assay [12]. This molecule had an Output (% Ligands) in [6] of 100%. Besides, the % of phage after the 2nd panning in [13] worked out at 40%. In addition, in assay [14], the OUTPUT KTX (%) was 22% and 30% and 26%. In assay [15], this molecule gave a Kv1.3 current, whole-cell patch-clamp of 35%. The fold enrichment (Kv1.3 transfected against vector cells) in assay [16] was found to be 10 fold; in assay [17] it was 20 fold. Also, the % of recovered phage, 2nd round in assay [18] amounted to 0%. Further, the % of recovered phage, 3rd round in [18] stood at 58%.

Regarding “Shk phage (sea anemone Stichodactyla helianthus ShK toxin on phage)”, the % phages, OUTPUT in [19] turned out to be 20%.

For the molecule agitoxin-2 (AgTx2) (peptide), the approximate IC50 was 0.04 nM in assay [7], 26.8 nM in assay [8], 0.004 nM in [9] and 1150 nM in assay [10].

Turning to charybdotoxin (CTX) (peptide), the approximate IC50 in assay [7] amounted to 1500 nM; in assay [8], 5.6 nM; in assay [9] it was 2.5 nM; in [10], 3 nM.

On to “fasciculin-2 phage (from UniProt P0C1Z0)”, for which the Output (% Ligands) in assay [6] came out at 0%.

Molecule mokatoxin-1 (peptide) gave an IL-2, TNF-α and IFN-γ secretion by CD3/CD28 activated human T cells (ELISA) in assay [20] of 50%. The approximate IC50 was over 1000 nM in [7], 680 nM in assay [8], 3 nM in assay [9] and over 1000 nM in assay [10]. For the same molecule, the Ki (block of channel current) in assay [21] was over 1000 nM; in assay [22], over 1000 nM; in assay [23], 620 nM; in [24], 1 nM. For the same molecule, the Koff (block of channel current) in assay [23] is 0.16 [s]^-1; in [24] it was 0.059 [s]^-1. The Kon (block of channel current) in assay [23] is 260000 [M · s]^-1; in assay [24], 3.6e+07 [M · s]^-1.

mokatoxin-1-phage came in with a % of phage after the 2nd panning in assay [13] of 15%. The molecule further showed a % of the phage isolated after two rounds of selection in assay [25] of 60%. The % of the eluted phage after two rounds of panning in assay [26] stood at 16.6%.

With “sarafotoxin S6b phage (from UniProt P13208)”, the Output (% Ligands) in [6] is 0%.

Turning to ZFTNVSCTTSKECWSVCQRLHNTSRGKCMNKKCRCYS (Z printed as first residue in Table 2) [charybdotoxin (CTX)], the “Ki (block of channel current)” value in assay [27] is over 1000 nM; in [28], 5 nM.

Take GVEINVKCSGSPQCLKPCKDAGMRFGKCMNRKCHCTPK [Kaliotoxin-1 (KTX)]: the “Ki (block of channel current)” value turned out to be 20 nM in assay [29], 1.1 nM in [27], 1.6 nM in [28] and 0.008 nM in assay [30]. The “Koff (block of channel current)” value was 0.21 [s]^-1 in assay [29], 0.009 [s]^-1 in assay [27], 0.0211 [s]^-1 in assay [28] and 0.007 [s]^-1 in [30]. In addition, the “Kon (block of channel current)” value in assay [29] is 1.3e+07 [M · s]^-1; in [27], 3e+07 [M · s]^-1; in assay [28], 21000 [M · s]^-1; in assay [30] it was 8e+08 [M · s]^-1.

On to GVPINVSCTGSPQCIKPCKDAGMRFGKCMNRKCHCTPK (ends and bridges not checked; cysteine pairing not given here) [agitoxin-2 (AgTx2)], for which the “Ki (block of channel current)” value in assay [29] was found to be 3.4 nM; in assay [27], 0.17 nM; in [30] it was 0.041 nM.

The record behind these values is patent US8716437B2 (priority 2007, dated 2014).
